# Data reported in patent US20240209399A1.
# Target: TnsC-BP-NLS-VP64 (plasmid pSL2783, p6A_hCO_Vch_TnsC_BP-NLS-VP64) (Vibrio cholerae)
# Test: cell-based or functional assay
substance,measurement,value
"TnsABf (plasmid pSL2669, pcDNA3.1_hCO_Vch_TnsA_BP-NLS_TnsB)","level of transcriptional activation (mCherry MFI relative to the non-targeting control, HEK293T reporter assay)",2 fold
